Experimental findings from PMC12279954 (Nature Communications, 2025) are described below.

B1: human haptoglobin Hp2 (residue 1-406) (natural protein)
chain: VDSGNDVTDIADDGCPKPPEIAHGYVEHSVRYQCKNYYKLRTEGDGVYTLNDKKQWINKAVGDKLPECEADDGCPKPPEIAHGYVEHSVRYQCKNYYKLRTEGDGVYTLNNEKQWINKAVGDKLPECEAVCGKPKNPANPVQRILGGHLDAKGSFPWQAKMVSHHNLTTGATLINEQWLLTTAKNLFLNHSENATAKDIAPTLTLYVGKKQLVEIEKVVLHPNYSQVDIGLIKLKQKVSVNERVMPICLPSKDYAEVGRVGYVSGWGRNANFKFTDHLKYVMLPVADQDQCIRHYEGSTVPEKKTPKSPVGVQPILNEHTFCAGMSKYQEDTCYGDAGSAFAVHDLEEDTWYATGILSFDKSCAVAEYGVYVKVTSIQDWVQKTIAEN
B3: CD163 ectodomain (human CD163, residue 1-1050) (receptor)
chain: not shown

Data set [1] concerns the molecule itself. Put plainly: SEC.
Data set [2] deals with T1, human haptoglobin Hp1 (residue 1-347) (human, UniProt P00738-2 19-347).
T1 sequence: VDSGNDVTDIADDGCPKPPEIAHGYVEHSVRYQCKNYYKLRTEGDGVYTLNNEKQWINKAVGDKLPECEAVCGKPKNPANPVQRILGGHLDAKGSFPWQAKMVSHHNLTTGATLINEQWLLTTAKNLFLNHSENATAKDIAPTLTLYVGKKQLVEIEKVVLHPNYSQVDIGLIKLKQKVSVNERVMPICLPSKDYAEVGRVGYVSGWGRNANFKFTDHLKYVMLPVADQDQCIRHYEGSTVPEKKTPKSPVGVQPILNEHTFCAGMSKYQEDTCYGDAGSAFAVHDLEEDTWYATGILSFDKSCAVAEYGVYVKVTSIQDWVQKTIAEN
Put plainly: SEC.

Data set [3] concerns the target B1. Put plainly: SEC.
Data set [4] concerns the molecule itself. The data set can be described thus: AUC.
Data set [5] deals with the molecule itself. Put plainly: AUC. The source holds these as a separate data set.
Data set [6] deals with the molecule itself. Put plainly: SEC. This is another data set of the same source.
The target in data set [7] is B3. The data set can be described thus: AUC.
The target in a further data set is CD163 ectodomain E359A (human, UniProt Q86VB7 42-1050, E359A). The data set can be described thus: pull-down.
Chain of CD163 ectodomain E359A (Q86VB7 42-1050 E359A): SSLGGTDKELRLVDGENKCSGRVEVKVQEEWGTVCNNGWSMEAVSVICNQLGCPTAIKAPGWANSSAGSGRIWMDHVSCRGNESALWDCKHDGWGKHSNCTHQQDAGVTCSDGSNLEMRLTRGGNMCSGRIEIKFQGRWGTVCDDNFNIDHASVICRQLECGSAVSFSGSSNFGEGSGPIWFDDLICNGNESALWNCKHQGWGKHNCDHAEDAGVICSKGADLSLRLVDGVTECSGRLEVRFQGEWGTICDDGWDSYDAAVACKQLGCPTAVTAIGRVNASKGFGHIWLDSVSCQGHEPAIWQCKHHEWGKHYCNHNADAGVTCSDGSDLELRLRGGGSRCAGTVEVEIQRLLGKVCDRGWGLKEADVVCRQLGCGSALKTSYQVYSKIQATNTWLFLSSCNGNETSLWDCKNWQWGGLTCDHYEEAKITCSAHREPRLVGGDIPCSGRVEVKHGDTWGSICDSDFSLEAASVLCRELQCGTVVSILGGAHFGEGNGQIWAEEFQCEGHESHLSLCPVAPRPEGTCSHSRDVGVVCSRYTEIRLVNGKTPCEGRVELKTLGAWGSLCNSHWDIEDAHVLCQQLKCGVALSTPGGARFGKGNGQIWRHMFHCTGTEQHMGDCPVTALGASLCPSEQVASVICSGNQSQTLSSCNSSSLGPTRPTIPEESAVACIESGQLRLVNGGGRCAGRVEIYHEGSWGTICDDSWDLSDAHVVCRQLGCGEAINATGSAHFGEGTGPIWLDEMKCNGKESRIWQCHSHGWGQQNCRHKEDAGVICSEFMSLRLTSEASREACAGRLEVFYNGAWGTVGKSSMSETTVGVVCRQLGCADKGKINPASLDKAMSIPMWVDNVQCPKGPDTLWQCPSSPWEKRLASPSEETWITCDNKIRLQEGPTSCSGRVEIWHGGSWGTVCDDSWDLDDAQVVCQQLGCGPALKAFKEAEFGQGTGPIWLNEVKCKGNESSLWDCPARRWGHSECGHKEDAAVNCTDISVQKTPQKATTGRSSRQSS
In data set [8] the target is CD163 ectodomain D292A/D293A (human, UniProt Q86VB7 42-1050, D292A | D293A). The data set can be described thus: pull-down.
Chain of CD163 ectodomain D292A/D293A (Q86VB7 42-1050 D292A/D293A): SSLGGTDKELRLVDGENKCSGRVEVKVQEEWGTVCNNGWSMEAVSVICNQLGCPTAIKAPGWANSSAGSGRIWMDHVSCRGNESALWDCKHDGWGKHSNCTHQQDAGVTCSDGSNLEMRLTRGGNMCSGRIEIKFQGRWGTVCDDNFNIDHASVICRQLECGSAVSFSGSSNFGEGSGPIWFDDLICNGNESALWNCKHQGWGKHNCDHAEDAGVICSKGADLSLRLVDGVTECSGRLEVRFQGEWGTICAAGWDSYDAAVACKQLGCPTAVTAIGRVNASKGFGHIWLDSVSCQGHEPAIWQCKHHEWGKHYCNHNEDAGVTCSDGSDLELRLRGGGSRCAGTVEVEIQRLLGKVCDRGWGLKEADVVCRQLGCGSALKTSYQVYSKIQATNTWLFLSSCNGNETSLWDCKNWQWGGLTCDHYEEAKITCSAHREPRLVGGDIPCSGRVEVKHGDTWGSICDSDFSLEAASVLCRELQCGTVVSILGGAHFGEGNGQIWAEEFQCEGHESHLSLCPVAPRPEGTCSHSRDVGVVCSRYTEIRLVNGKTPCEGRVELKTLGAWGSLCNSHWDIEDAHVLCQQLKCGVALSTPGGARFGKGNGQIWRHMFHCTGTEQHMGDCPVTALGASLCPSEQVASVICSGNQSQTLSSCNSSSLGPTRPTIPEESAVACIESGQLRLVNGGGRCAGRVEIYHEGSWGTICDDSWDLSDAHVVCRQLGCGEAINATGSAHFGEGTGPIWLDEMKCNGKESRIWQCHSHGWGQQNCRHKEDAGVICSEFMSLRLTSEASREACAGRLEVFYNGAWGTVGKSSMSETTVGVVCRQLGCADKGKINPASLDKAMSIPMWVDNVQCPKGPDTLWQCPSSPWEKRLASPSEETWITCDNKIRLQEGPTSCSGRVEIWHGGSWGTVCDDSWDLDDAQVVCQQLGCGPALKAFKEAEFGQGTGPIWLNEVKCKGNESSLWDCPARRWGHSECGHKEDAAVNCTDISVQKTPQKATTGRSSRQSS
Data set [9] addresses B3. Put plainly: SEC.

Take B1: in the data set “SEC [1]”, the binding result is given as “binds”.

B2: human hemoglobin (complex)
chain 1: not shown
chain 2: not shown
With B2, the binding result in data set [2] and in [3] was “binds” each time.
B3: the “stoichiometry N” value in “AUC [4]” was 2; in “AUC [5]” it was 3; in “SEC [6]”, about 3.

B4: hemoglobin-haptoglobin 1 complex (Hb-Hp1) (complex)
chain 1: not shown
chain 2: not shown
chain 3: VDSGNDVTDIADDGCPKPPEIAHGYVEHSVRYQCKNYYKLRTEGDGVYTLNNEKQWINKAVGDKLPECEAVCGKPKNPANPVQRILGGHLDAKGSFPWQAKMVSHHNLTTGATLINEQWLLTTAKNLFLNHSENATAKDIAPTLTLYVGKKQLVEIEKVVLHPNYSQVDIGLIKLKQKVSVNERVMPICLPSKDYAEVGRVGYVSGWGRNANFKFTDHLKYVMLPVADQDQCIRHYEGSTVPEKKTPKSPVGVQPILNEHTFCAGMSKYQEDTCYGDAGSAFAVHDLEEDTWYATGILSFDKSCAVAEYGVYVKVTSIQDWVQKTIAEN
B4: the binding result (in data set [7]; with CD163 ectodomain E359A; in data set [8]) was “binds” each time.

B5: hemoglobin-haptoglobin 2 complex (Hb-Hp2) (complex)
chain 1: not shown
chain 2: not shown
chain 3: VDSGNDVTDIADDGCPKPPEIAHGYVEHSVRYQCKNYYKLRTEGDGVYTLNDKKQWINKAVGDKLPECEADDGCPKPPEIAHGYVEHSVRYQCKNYYKLRTEGDGVYTLNNEKQWINKAVGDKLPECEAVCGKPKNPANPVQRILGGHLDAKGSFPWQAKMVSHHNLTTGATLINEQWLLTTAKNLFLNHSENATAKDIAPTLTLYVGKKQLVEIEKVVLHPNYSQVDIGLIKLKQKVSVNERVMPICLPSKDYAEVGRVGYVSGWGRNANFKFTDHLKYVMLPVADQDQCIRHYEGSTVPEKKTPKSPVGVQPILNEHTFCAGMSKYQEDTCYGDAGSAFAVHDLEEDTWYATGILSFDKSCAVAEYGVYVKVTSIQDWVQKTIAEN
As to B5, in data set [9], the binding result is recorded as “binds”.
